The assay addresses Mutant H2A.Z^AP3-YFP (mouse). Put plainly: co-IP; immunoprecipitation with GFP antibodies of the YFP-tagged histone from dox-induced transgenic ESCs (endogenous H2A.Z knockdown background), immunoblot of the partners; uninduced cells (No DOX) as negative controls; densitometry in ImageJ.

B1: NAP1L1 (natural protein)
chain: MADIDNKEQSELDQDLEDVEEVEEEETGEETKIKARQLTVQMMQNPQILAALQERLDGLVDTPTGYIESLPKVVKRRVNALKNLQVKCAQIEAKFYEEVHDLERKYAVLYQPLFDKRFEIINAIYEPTEEECEWKPDEEDEVSEELKEKAKIEDEKKDEEKEDPKGIPEFWLTVFKNVDLLSDMVQEHDEPILKHLKDIKVKFSDAGQPMSFVLEFHFEPNDYFTNEVLTKTYRMRSEPDDSDPFSFDGPEIMGCTGCQIDWKKGKNVTLKTIKKKQKHKGRGTVRTVTKTVSNDSFFNFFAPPEVPENGDLDDDAEAILAADFEIGHFLRERIIPRSVLYFTGEAIEDDDDDYDEEGEEADEEGEEEGDEENDPDYDPKKDQNPAECKQQ
For B1, the fold of NAP1L1 bound against H2A.Z^WT is < 2 fold.

These data come from paper PMC3749939.
